Test results taken from the Human Domainome abundance scans (Beltran et al. 2025).
± gives the uncertainty stated by the source.

B1: E3 ubiquitin-protein ligase TRIM36, residues 208 to 252; numbered along this chain, Q9NQ86 (parent)
chain: KILMCPEHETERINMYCELCRRPVCHLCKLGGNHANHRVTTMSSA

Variants of: B1
Test: abundance fitness (aPCA) (normalised: wild type 0, dead -1); higher = more abundant; growth selection in yeast, the domain comes from the species named
Conditions: Homo sapiens

Row | Variant | abundance fitness
1 | KILMCPEHETERINMYCGLCRRPVCHLCKLGGNHANHRVTTMSSA [E18G] | -0.123 ± 0.058
2 | KIWMCPEHETERINMYCELCRRPVCHLCKLGGNHANHRVTTMSSA [L3W] | -0.254 ± 0.053
3 | KILMCPEHETERINMYCERCRRPVCHLCKLGGNHANHRVTTMSSA [L19R] | 0.076 ± 0.049
4 | KILMCPEHETERINMYCELCRRPVCHLTKLGGNHANHRVTTMSSA [C28T] | -0.777 ± 0.13
5 | KILMCPEHETERINMYCELCRRPVCHLCKLGGNHQNHRVTTMSSA [A35Q] | -0.05 ± 0.07
6 | KILMCCEHETERINMYCELCRRPVCHLCKLGGNHANHRVTTMSSA [P6C] | -0.235 ± 0.069
7 | KILMCPEHETERINMYCELCRRPVCHLCKSGGNHANHRVTTMSSA [L30S] | 0.075 ± 0.05
8 | KKLMCPEHETERINMYCELCRRPVCHLCKLGGNHANHRVTTMSSA [I2K] | -0.234 ± 0.073
9 | KILMSPEHETERINMYCELCRRPVCHLCKLGGNHANHRVTTMSSA [C5S] | -0.765 ± 0.053
10 | KLLMCPEHETERINMYCELCRRPVCHLCKLGGNHANHRVTTMSSA [I2L] | -0.083 ± 0.059
11 | KILMCPEHETERINMYCELCRRPVCHLCKLGGNHANHPVTTMSSA [R38P] | -0.011 ± 0.058
12 | KILMCPEHETERIKMYCELCRRPVCHLCKLGGNHANHRVTTMSSA [N14K] | 0.036 ± 0.068
13 | KILMCPEHETERINMYCELMRRPVCHLCKLGGNHANHRVTTMSSA [C20M] | -0.534 ± 0.084
14 | KILMCPEHETERINMYCELCRRPVCHCCKLGGNHANHRVTTMSSA [L27C] | -0.196 ± 0.064
15 | KILMCPEHETERINMYCELCRRPVCHLCKLGGNHANHRVTDMSSA [T41D] | -0.026 ± 0.065
16 | KPLMCPEHETERINMYCELCRRPVCHLCKLGGNHANHRVTTMSSA [I2P] | -0.386 ± 0.068
17 | KILICPEHETERINMYCELCRRPVCHLCKLGGNHANHRVTTMSSA [M4I] | -0.063 ± 0.081
18 | KILMCPEHETERINMYCELERRPVCHLCKLGGNHANHRVTTMSSA [C20E] | -0.491 ± 0.061
19 | KILMCPEHETERINMYCELCRRPVCHLCKLGGNHANERVTTMSSA [H37E] | -0.038 ± 0.054

Row | Variant | abundance fitness
20 | KILMCPEHETERINQYCELCRRPVCHLCKLGGNHANHRVTTMSSA [M15Q] | -0.285 ± 0.23
21 | KILMCPEHETERINMYCEWCRRPVCHLCKLGGNHANHRVTTMSSA [L19W] | -0.088 ± 0.056
22 | KILMCPEHETERINMYCELCRRPVCHLCKLGGNHANHRVTTMASA [S43A] | 0.001 ± 0.056
23 | WILMCPEHETERINMYCELCRRPVCHLCKLGGNHANHRVTTMSSA [K1W] | -0.508 ± 0.057
24 | KIMMCPEHETERINMYCELCRRPVCHLCKLGGNHANHRVTTMSSA [L3M] | 0.092 ± 0.056
25 | KILMCPEHETERINMYCELCRRPVCHLCKLGGNHANHRVNTMSSA [T40N] | 0.141 ± 0.087
26 | KILMCPEHETERINMYCELCRRPVCHLCKLGGNHANSRVTTMSSA [H37S] | -0.198 ± 0.063
27 | KILMCPEHETERINMYCELCRRPVCHLCKMGGNHANHRVTTMSSA [L30M] | -0.041 ± 0.082
28 | KILMCPEHETERINMYCELCRRPVCHLCKLGGIHANHRVTTMSSA [N33I] | -0.064 ± 0.072
29 | KILMCPEHETERINMYCELCRRPVCHLCKWGGNHANHRVTTMSSA [L30W] | -0.203 ± 0.058
30 | KILMCPEHETERINMYCELCRRPVCHLCKLGGNVANHRVTTMSSA [H34V] | -0.444 ± 0.056
31 | KILMCPEHETERINMYCELCERPVCHLCKLGGNHANHRVTTMSSA [R21E] | 0.171 ± 0.083
32 | KILMCPEHETERINMYCELCRRPVKHLCKLGGNHANHRVTTMSSA [C25K] | -0.572 ± 0.087
33 | KILMCPEHETERINMYCELCRRPVCHLCELGGNHANHRVTTMSSA [K29E] | 0.048 ± 0.054
34 | KILMCPEHETERINMYQELCRRPVCHLCKLGGNHANHRVTTMSSA [C17Q] | -0.954 ± 0.43
35 | KILMCPEHETKRINMYCELCRRPVCHLCKLGGNHANHRVTTMSSA [E11K] | -0.259 ± 0.11
36 | KILMCPEHETERINMYCELCRRPVCHLCKLGGNHNNHRVTTMSSA [A35N] | -0.339 ± 0.12
37 | KILMCPEHETERINMYCELCRRPVCHLCKLGGNHANHEVTTMSSA [R38E] | 0.085 ± 0.061
38 | KILMCPGHETERINMYCELCRRPVCHLCKLGGNHANHRVTTMSSA [E7G] | -0.292 ± 0.055

Row | Variant | abundance fitness
39 | KILMCPEHETERINMYCELCRRPVCHLCKLGGNHANHRVATMSSA [T40A] | -0.027 ± 0.064
40 | KILMCPEHETERINMYCELCRRPNCHLCKLGGNHANHRVTTMSSA [V24N] | -0.49 ± 0.09
41 | KILMCPEHETERIWMYCELCRRPVCHLCKLGGNHANHRVTTMSSA [N14W] | -0.224 ± 0.072
42 | KILMCPEHETERINMYCELCRRPVCHLCKLGGNHPNHRVTTMSSA [A35P] | -0.182 ± 0.074
43 | KILMCPEHETERINMYCELCRRPVCHLCKLGGNHANHRVTTPSSA [M42P] | 0.087 ± 0.068
44 | KILMCPEHETERINMYCELCRRPVCHLCKLGGNHANHRWTTMSSA [V39W] | -0.138 ± 0.052
45 | KILMCPEHGTERINMYCELCRRPVCHLCKLGGNHANHRVTTMSSA [E9G] | 0.008 ± 0.045
46 | KILMCPEHETERINMYYELCRRPVCHLCKLGGNHANHRVTTMSSA [C17Y] | -0.862 ± 0.39
47 | KILMCPEHETERINMYCELCRRPVCHLCKLGGNHANHRVTTMGSA [S43G] | -0.022 ± 0.053
48 | KIKMCPEHETERINMYCELCRRPVCHLCKLGGNHANHRVTTMSSA [L3K] | 0.006 ± 0.058
49 | KILMCPEHETERINMYCELCRRPKCHLCKLGGNHANHRVTTMSSA [V24K] | -0.533 ± 0.077
50 | KILMCPEHETERINMYCELCRRPVCHLCKLGGNHANHRVTTMSTA [S44T] | -0.028 ± 0.057
51 | KILECPEHETERINMYCELCRRPVCHLCKLGGNHANHRVTTMSSA [M4E] | -0.173 ± 0.061
52 | KILMCPEHETERINMYCESCRRPVCHLCKLGGNHANHRVTTMSSA [L19S] | 0.069 ± 0.058
53 | KILMCKEHETERINMYCELCRRPVCHLCKLGGNHANHRVTTMSSA [P6K] | 0.023 ± 0.078
54 | KILMCPEHETERINMYCELCRRPVCHLCKLGGNHKNHRVTTMSSA [A35K] | -0.078 ± 0.072
55 | KILMCPEHETERINMYCELCRRPVCHLCKLGGNHANFRVTTMSSA [H37F] | -0.486 ± 0.092
56 | KILMCPEHETERINMYCELCRRPVCHWCKLGGNHANHRVTTMSSA [L27W] | -0.223 ± 0.052
57 | KILMRPEHETERINMYCELCRRPVCHLCKLGGNHANHRVTTMSSA [C5R] | -0.976 ± 0.062
